{"source": "paper PMC7043024", "target": "LSD1 (lysine specific demethylase 1), full length (UniProt O60341)"}
{"substance": "H3K4me 1-21 peptide", "values": [{"measurement": "K (M,post) (post-equilibrium apparent Michaelis-Menten constant) of the demethylation of K4meK9 by 200 nM CoREST ternary complex, APO, real-time 1H NMR assay", "value": 2.3, "unit": "µM"}, {"measurement": "K (M,post) (post-equilibrium apparent Michaelis-Menten constant) of the demethylation of K4meK9 by the CoREST ternary complex pre-equilibrated with 5 μM MS275 HDAC inhibitor, real-time 1H NMR assay", "value": 9.2, "unit": "µM"}]}
